Experimental data reported in patent US20200048358A1.

Molecular target: chimeric OX40 construct 1549: Human OX40 with mouse domains 1A and 4B and region non-annotated extracellular region (aa 30-65 and aa 127-214) (human; mouse) (UniProt P47741)
Test: flow cytometry, transfected 293-F cells

Binder | relative MFI compared to isotype control
anti-OX40 antibody 1482/1483 (antibody, V domains shown) VH: EVQLLESGGGLVQPGGSLRLSCAASGFTFSSYAMSWVRQAPGKGLEWVSYISYYSGYTYYADSVKGRFTISRDNSKNTLYLQMNSLRAEDTAVYYCARGYGYLDYWGQGTLVTVSS VL: DIQMTQSPSSLSASVGDRVTITCRASQSISSYLNWYQQKPGKAPKLLIYAASSLQSGVPSRFSGSGSGTDFTLTISSLQPEDFATYYCQQYGSLLTFGQGTKLEIK | 8.7
anti-OX40 antibody 1170/1171 (antibody, V domains shown) VH: EVQLLESGGGLVQPGGSLRLSCAASGFTFGGYYMSWVRQAPGKGLEWVSYIPGSGGSTYYADSVKGRFTISRDNSKNTLYLQMNSLRAEDTAVYYCARYDYYWMDYWGQGTLVTVSS VL: DIQMTQSPSSLSASVGDRVTITCRASQSISSYLNWYQQKPGKAPKLLIYAASSLQSGVPSRFSGSGSGTDFTLTISSLQPEDFATYYCQQGHGSYPHTFGQGTKLEIK | 12.1
anti-OX40 antibody 1166/1167 (antibody, V domains shown) VH: EVQLLESGGGLVQPGGSLRLSCAASGFTFGGYYMSWVRQAPGKGLEWVSAISGSGGSTYYADSVKGRFTISRDNSKNTLYLQMNSLRAEDTAVYYCARYDYASMDYWGQGTLVTVSS VL: DIQMTQSPSSLSASVGDRVTITCRASQSISSYLNWYQQKPGKAPKLLIYAASSLQSGVPSRFSGSGSGTDFTLTISSLQPEDFATYYCQQYYWYGLSTFGQGTKLEIK | 11.3
anti-OX40 antibody 1514/1515 (antibody, V domains shown) VH: EVQLLESGGGLVQPGGSLRLSCAASGFTFGYYYMSWVRQAPGKGLEWVSGISSYGSYTYYADSVKGRFTISRDNSKNTLYLQMNSLRAEDTAVYYCARSGYSNWANSFDYWGQGTLVTVSS VL: DIQMTQSPSSLSASVGDRVTITCRASQSISSYLNWYQQKPGKAPKLLIYAASSLQSGVPSRFSGSGSGTDFTLTISSLQPEDFATYYCQQGDYTLFTFGQGTKLEIK | 10.6

Results, then the binder that gave them:

relative MFI compared to isotype control | Binder
8.5 | anti-OX40 antibody 1526/1527 (antibody, V domains shown) VH: EVQLLESGGGLVQPGGSLRLSCAASGFTFSGYSMYWVRQAPGKGLEWVSGIGYSGYGTYYADSVKGRFTISRDNSKNTLYLQMNSLRAEDTAVYYCARYYFHDYAAYSLDYWGQGTLVTVSS VL: DIQMTQSPSSLSASVGDRVTITCRASQSISSYLNWYQQKPGKAPKLLIYAASSLQSGVPSRFSGSGSGTDFTLTISSLQPEDFATYYCQQYGSDSLLTFGQGTKLEIK
11.2 | anti-OX40 antibody 1524/1525 (antibody, V domains shown) VH: EVQLLESGGGLVQPGGSLRLSCAASGFTFGSYYMGWVRQAPGKGLEWVSSIGSYYGYTYYADSVKGRFTISRDNSKNTLYLQMNSLRAEDTAVYYCARHDYGALDYWGQGTLVTVSS VL: DIQMTQSPSSLSASVGDRVTITCRASQSISSYLNWYQQKPGKAPKLLIYAASSLQSGVPSRFSGSGSGTDFTLTISSLQPEDFATYYCQQYGPSGLFTFGQGTKLEIK
